Experimental data: the supplement of paper PMC9732359
± gives the uncertainty stated by the source.

Assay: protein stability index of a GFP-peptide fusion (yeast GPS) (PSI 1-4); higher = more stable; sorted into four equal gates, so the index is relative within each strain
How it was run: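 Tiled 17-residue yeast protein peptides were fused downstream of GFP in a plasmid that also expresses Cherry, and the pooled library was carried in yeast. Mid-log cultures in leucine-free medium were sorted into four equal gates by GFP/Cherry fluorescence ratio, and plasmids from each gate were PCR-amplified and Illumina-sequenced, with reads assigned to strains by barcodes. The protein stability index for each peptide was each gate's read frequency times its gate number, summed.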

Sequence	protein stability index (doa10∆)	protein stability index (pdr5∆)	protein stability index (ubr1∆)	protein stability index (san1∆)
LAGKVGSIRVHKSGKLS [RPC53]	1.45 ± 0.058	1.59 ± 0.072	1.28 ± 0.06	–
LAIKDSKKRFAAIWTLC [RPO21]	1.9 ± 0.045	1.92 ± 0.045	2.1 ± 0.036	1.8 ± 0.072
LAKILARSIDVEKGVNP [ECM29]	1.21 ± 0.09	1.21 ± 0.062	1.07 ± 0.071	1.4 ± 0.17
LALGCHFQDQKNKKIEV [POP7]	2.65 ± 0.18	2.97 ± 0.16	2.29 ± 0.11	2.92 ± 0.12
LALQRGATVFVNHLLLF [DPB4]	1.42 ± 0.046	1.26 ± 0.036	1.34 ± 0.039	1.25 ± 0.083
LALTTLSEPLIKIGIRV [YCG1]	1.81 ± 0.061	2.06 ± 0.047	2.01 ± 0.057	1.74 ± 0.065
LANYLTSALSELSGLIS [QCR2]	1.48 ± 0.047	1.88 ± 0.044	1.59 ± 0.033	1.84 ± 0.064
LAPELNQAIWKRGVKGV [RPL31A]	–	2.04 ± 0.22	1.57 ± 0.19	–
LASSFVNGFLNLGYCND [RPN1]	3.2 ± 0.1	3.33 ± 0.097	3.17 ± 0.082	3.27 ± 0.049
LATAHIYLSRFLIKASV [SSN8]	1.23 ± 0.042	1.34 ± 0.051	1.07 ± 0.055	1.31 ± 0.16
LATLLGHNDWVSQVRVV [ASC1]	1.94 ± 0.085	2.37 ± 0.082	1.8 ± 0.047	1.89 ± 0.1
LAYSKIVNGQTFSYVDS [YMR129W/POM152]	2.25 ± 0.045	2.64 ± 0.059	1.95 ± 0.042	2.53 ± 0.054
LCDLFVNGSITDQLIQN [NUT1]	–	2.11 ± 0.22	3.44 ± 0.29	1.76 ± 0.21
LCRQGHNMLNLLIHRKG [PRP8]	2.33 ± 0.061	2.55 ± 0.068	2.23 ± 0.041	2.31 ± 0.091
LCSMLQEASQVTFIFGE [MED11]	2.06 ± 0.053	2.74 ± 0.048	2.56 ± 0.037	2.61 ± 0.055
LCVLWDDLQSSVIPEVD [YCG1]	1.88 ± 0.095	1.87 ± 0.068	2.34 ± 0.075	2.01 ± 0.087
LDCDGGFIDASCIAVMA [RRP45]	1.87 ± 0.047	1.56 ± 0.049	1.56 ± 0.04	2.67 ± 0.071
LDERFASRVALNKEKLG [IRR1]	1.27 ± 0.057	1.52 ± 0.1	1.55 ± 0.087	1.57 ± 0.18
LDESSEQKNTAKEELNG [YIL149C/MLP2]	3.1 ± 0.15	2.95 ± 0.27	3.22 ± 0.087	3.21 ± 0.072
LDNKGSGEDAEEELWNS [YIL149C/MLP2]	3.31 ± 0.17	2.92 ± 0.14	3.22 ± 0.1	3.16 ± 0.093
LDNLTEDPNSAAFDEVE [DIS3]	3.19 ± 0.085	3.3 ± 0.072	3.12 ± 0.043	3.22 ± 0.041
LDRPEYLKKREAGEVKD [RPL10]	3.27 ± 0.12	3.15 ± 0.15	3.42 ± 0.084	3.35 ± 0.044
LDTFIKIDGNPDELIKA [PRE5]	3.19 ± 0.12	3.19 ± 0.12	3.36 ± 0.079	3.31 ± 0.071
LEDLKDVYASKVRLNAS [PRP8]	2.31 ± 0.043	2.1 ± 0.041	2.27 ± 0.04	2.47 ± 0.047
LEDLKNTKEIAVDLEHH [RRP6]	2.66 ± 0.061	2.54 ± 0.047	2.7 ± 0.038	2.48 ± 0.056
LEEHKNHLDELQKKFVT [SMC1]	2.88 ± 0.08	2.83 ± 0.11	2.91 ± 0.052	2.88 ± 0.059
